T1: amphyphisin SH3 (AMPH_HUMAN), P49418
T1 chain: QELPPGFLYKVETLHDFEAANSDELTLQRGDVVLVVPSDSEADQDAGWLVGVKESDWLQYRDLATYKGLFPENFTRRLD


Tests used:
[1] = target: T1, amphyphisin SH3 (AMPH_HUMAN), P49418; experiment: SPOT array
[2] = target: endophilin SH3 (SH3G2_HUMAN), Q99962; experiment: SPOT array

Binder	normalised SPOT signal, Boehringer light units (BLU); mean over the file's lines of this peptide [1]	normalised SPOT signal, Boehringer light units (BLU); mean over the file's lines of this peptide [2]
KRVVPKKPPPSPQP [Q13438 518-532]	64.7	278
ANLALRRPQGSTSR [P06681 588-601]	12.6	322
KSLRIARPPKQGLN [P49815 945-958]	168	398
KNRTFLRPPKVKME [O75937 248-261]	77.8	55.9
KPRQIKRPLEDAIE [Q9UNI5 8-21]	57.1	30.7
KRNSLKRPRDVDHR [Q9H8U9 166-179]	27.9	0
KRIKLRRPRVSKQR [Q96FU1 26-39]	12.4	20.7
KQASLKRPPTAGAQ [Q9UBC5 553-566]	5.2	55.2
KLEDPRRPDTSFLW [O75923 2014-2027]	45.6	22.4
KPEGLRRPPSKTSM [Q15047 1069-1082]	32.3	41.2
KPVSPRRPWSPSKE [Q9HCL7 1184-1197]	226	1760
KLMKFSRPKKTRSG [Q9UIG2 1550-1563]	0	1.7
ANLQPKRPKTIKQR [Q9NXX2 8-21]	23.6	55.4
KRGRPGRPPSTNKK [O00539 35-49]	60.3	2490
ANPPPKRPVRASSR [Q9HCK1 771-784]	14200	8740
KPQTIKRPLNPLAS [Q9UKV6 127-140]	9	52.2
KLMEPHRPERQDEK [P49593 287-300]	485	146
KSPIPRRPTQSFVK [Q9ULL0 591-604]	24.8	574
KLGTLRRPEGPAEP [Q14289 12-25]	24.6	10.4
KPASPKKPPPGERS [O60382 1692-1706]	56	737
KPASPKKPPPGERR [Q9UQ36 1183-1197]	43.2	779

Binder	normalised SPOT signal, Boehringer light units (BLU); mean over the file's lines of this peptide [1]	normalised SPOT signal, Boehringer light units (BLU); mean over the file's lines of this peptide [2]
KLDTPLRPARQQPT [Q14775 472-485]	2170	1390
KLFRPRRPRSSSDA [O94820 221-234]	46.6	316
KKPVPARPPPPTNF [AAH28697 228-242]	150	11900
KPQPPARPPPPVLP [Q9UKL5 750-764]	1520	10900
KRKKPSRPAKTRKR [Q9UNZ9 85-98]	109	175
KRKKFKRPPQRLFD [O00267 328-341]	57.4	22.5
KNLDISRPDKKSKK [P46977 431-444]	327	342
KQYMLRRPALEDYV [Q9NWS7 207-220]	79.4	148
KSLKLRRPLYAHLA [Q13304 138-151]	31.7	38.4
KKYLPKRPAKDDPE [Q15642 51-64]	11.1	195
KPPALPRPIRNLEV [P47895 16-29]	118	958
KLKSPKRPASPSSP [Q9H8D2 66-79]	32.4	803
KQVSPRRPQATEAV [Q9Y3H2 190-203]	147	125
KPPKPPKPPRPPKT [Q9Y6N4 506-520]	3550	16900
KPPKPPRPPKTLKL [Q9Y6N4 509-523]	1290	25300
KPQRPRRPASPIST [P07360 22-35]	2580	9220
KSKKFRRPDIQYPD [P10451 170-183]	24.7	40.5
KSLPLRRPSYTLGM [O43166 958-971]	51.5	322
KPGSPYRPPVPRAP [Q14687 646-660]	201	1840
KPSRPPRPSRPPPP [O43584 85-98]	8020	46000
KSQGPAKPPPPRKP [Q13444 758-772]	1320	7680

From PMC314469, “Protein Interaction Networks by Proteome Peptide Scanning” (PLoS Biology, 2004)
